Measurements: patent US20190038704A1 (SANFORD BURNHAM PREBYS MEDICAL DISCOVERY INSTITUTE, published 2019)
Bridge positions count the residues as written; N and C are the ends. Square brackets hold non-standard residues; d marks the D form. Ends that are not written are not given here. βAla = NCCC(=O)O

Legend:
[1] = molecular target: T1, mouse EphA4 ectodomain fused to Fc (mouse, UniProt Q03137 20-547); assay: competition ELISA: ephrin-A5 AP binding to immobilized EphA4 Fc
T1 construct: extracellular domain; Defined as 'EphA4 Fc; also called EphA4 Fc; not shown: Fc portion
T1 sequence (Q03137 20-547): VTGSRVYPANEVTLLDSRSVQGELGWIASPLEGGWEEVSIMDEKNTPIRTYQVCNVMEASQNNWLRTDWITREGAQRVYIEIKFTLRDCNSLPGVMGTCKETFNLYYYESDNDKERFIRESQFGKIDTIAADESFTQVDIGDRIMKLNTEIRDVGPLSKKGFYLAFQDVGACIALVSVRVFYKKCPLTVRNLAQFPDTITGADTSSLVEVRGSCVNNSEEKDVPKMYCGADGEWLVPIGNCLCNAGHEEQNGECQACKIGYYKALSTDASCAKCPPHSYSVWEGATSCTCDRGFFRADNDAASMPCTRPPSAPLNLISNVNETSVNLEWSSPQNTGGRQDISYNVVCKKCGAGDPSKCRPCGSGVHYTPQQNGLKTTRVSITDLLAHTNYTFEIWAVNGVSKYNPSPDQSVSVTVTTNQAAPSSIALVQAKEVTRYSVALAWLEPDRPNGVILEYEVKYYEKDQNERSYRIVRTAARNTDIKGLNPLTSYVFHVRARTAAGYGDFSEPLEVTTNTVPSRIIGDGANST
Method: OD₄₀₅ was measured and the absorbance from wells coated with Fc was subtracted as background.

[2] = molecular target: EphA4 in stably transfected human embryonal kidney (HEK293) cells; assay: cell-based or functional assay

Row | Binder | IC50 [1] [nM] | IC50 of inhibition of ephrin-A5-induced EphA4 tyrosine phosphorylation in HEK293 cells [2] [nM]
1 | APYCVYRXSWSC (aminoisobutyric acid (Aib) at position 8; C-terminal amide; disulfide bridge Cys4-Cys12) [APY-Aib8.am] | 2600 | –
2 | APYCVYRXSWSC (βAla (3-aminopropanoic acid) at position 8; C-terminal amide; disulfide bridge Cys4-Cys12) [APY-βAla8.am] | – | ~300
3 | Ac-KYCVYR[βAla]SWSC-NH2 (disulfide 3-11 (inferred), numbers may be shifted) [ac.KY-βAla8.am] | 1160 | –
4 | XPYCVYRGSWSC (D-Ala at position 1; C-terminal amide; disulfide bridge Cys4-Cys12) [DAla1-PY.am] | 1100 | –
5 | XPYCVYRGSWSC (βAla at position 1; C-terminal amide; disulfide bridge Cys4-Cys12) [βAla1-PY.am] | 680 | –
6 | YCVYR[βAla]SWSC-NH2 (disulfide 2-10 (inferred), numbers may be shifted) [Y-βAla8.am] | 1470 | –
7 | APYCVYRXSWSC (D-Ala at position 8; C-terminal amide; disulfide bridge Cys4-Cys12) [APY-DAla8.am] | 280 | –

Next, values leading:

Row | IC50 [1] [nM] | IC50 of inhibition of ephrin-A5-induced EphA4 tyrosine phosphorylation in HEK293 cells [2] [nM] | Binder
8 | 68 | – | APYCVYK[βAla]SWSC-NH2 (disulfide 4-12 (inferred), also called APYCVYKβASWSC-am) [APY-Lys7-βAla8.am]
9 | 260 | – | KYCVYR[βAla]SWSC-NH2 (disulfide 3-11 (inferred), numbers may be shifted) [KY-βAla8.am]
10 | 280 | – | APYCVYRGSWSC-NH2 (disulfide 4-12, C-terminally amidated APY) [APY.am]
